# Data taken from the RNAGym collection of RNA variant scans (doi:10.7554/elife.90254).
# B1: LINE1-full (parent)
# chain: UACGUAGGUGGUUUUCCCCUGAUAGUGCUAAGGGGGCCUGGAAGUUUGGACUGGGCAGAGCUCAACACAGCGUGGCAAAGUGGCUGUGGCUAGACUGCCUCUCUGGAUUCCUCGUCACUCAGCAGGGCAUCUCUGAGAGAAAUGCC
# Variants of: B1
# Assay: self-cleavage, relative activity (ratio to wild type); higher = more cleavage; in vitro, sequencing; the parent is a self-cleaving ribozyme
row,Variant,self-cleavage
1,UACGUAGGUGGUUUUCCCCUGAUAGUGCUAAGGGGGCCUGGAAGUUUGGACUGGGCAGAGCUCAACACCGCGUGGCAAAGUGGCUGUGGCUAGACUGCCUCUCUGGAUUCCUCGUCGCUCAGCAGGGCAUCUCUGAGAGAAAUGCC [A69C A117G],0.11
2,UACGUAGGUGGUUUUCCCCUGAUAGUGCUAAGGGGGCCUGGAAGUUUGGACUGGGCAGAGCUCAACAUAGCGUGGCAAAGUGGCUGUGGCUAGACUGCCUCUCUGGAUUCCUCGACACUCAGCAGGGCAUCUCUGAGAGAAAUGCC [C68U U115A],0.2
3,UACGUAGGUGGUUUUCCCCUGAUAGUGCUAAGGGGGCCUGGAAGUUUGGACUGGGCAGAGCUCAACAAGGCGUGGCAAAGUGGCUGUGGCUAGACUGCCUCUCUGGAUUCCUCGUCACUCAGCAGGGCAUCUCUGAGAGAAAUGCC [C68A A69G],0.07
4,UACGUAGGUGGUUUUCCCCUGAUAGUGCUAAGGGGGCCUGGAAGUUUGGACUGGGCAGAGCUCAACAUAGCGUGGCAAAGUGGCUGUGGCUAGACUGCCUCUCUGGAUUCCUCGUCACUCAGGAGGGCAUCUCUGAGAGAAAUGCC [C68U C123G],0.1
5,UACGUAGGUGGUUUUCCCCUGAUAGUGCUAAGGGGGCCUGGAAGUUUGGACUGGGCAGAGCUCAACACCGCGUGGCAAAGUGGCUGUGGCUAGACUGCCUCUCUGGAUUCCUCGUCACUCAGCAGGGCAUCUCUGAGAGAAGUGCC [A69C A142G],0.11
6,UACGUAGGUGGUUUUCCCCUGAUAGUGCUAAGGGGGCCUGGAAGUUUGGACUGGGCAGAGCUCAACAUAGCGUGGCGAAGUGGCUGUGGCUAGACUGCCUCUCUGGAUUCCUCGUCACUCAGCAGGGCAUCUCUGAGAGAAAUGCC [C68U A77G],0.24
7,UACGUAGGUGGUUUUCCCCUGAUAGUGCUAAGGGGGCCUGGAAGUUUGGACUGGGCAGAGCUCAACAUAGCGUGGCAAAGUGGCUGUGGCUAGACUGCCUCUCUGGAUUCCUCGUCACUCAGCAGGGCAUCUCUGAGAGAGAUGCC [C68U A141G],0.3
8,UACGUAGGUGGUUUUCCCCUGAUAGUGCUAAGGGGGCCUGGAAGUUUGGACUGGGCAGAGCUCAACAUAGCGUGGCAAAGUGGCUGUGGCUAGACUGCCUCUCUGGAUUCCUCGUCACUCAGCAGGGCAUCUCCGAGAGAAAUGCC [C68U U134C],0.17
9,UACGUAGGUGGUUUUCCCCUGAUAGUGCUAAGGGGGCCUGGAAGUUUGGACUGGGCAGAGCUCAACACCGCGUGGCAAAGUGGCUGUGGCUAGACUGCCUCUCUGGAUUCCUCGUCACUCAGCAGGGCAUCUCUGAGAGAAAUGCC [A69C],0.07
10,UACGUAGGUGGUUUUCCCCUGAUAGUGCUAAGGGGGCCUGGAAGUUUGGACUGGGCAGAGCUCAACUCAGCGUGGCAAAGUGGCUGUGGCUAGACUGCCUCUCUGGAUUCCUCGUCACUCAGCAGGGCAUCUCUGAGAGAAACGCC [A67U U143C],0.2
11,UACGUAGGUGGUUUUCCCCUGAUAGUGCUAAGGGGGCCUGGAAGUUUGGACUGGGCAGAGCUCAACAUAGCGUGGCAAAGUGGCUGUGGCUAGACUGCCUCUCUGGAUUCCUCGUCACUCAGCAGGGCAUCUCUGAGAGUAAUGCC [C68U A140U],0.22
12,UACGUAGGUGGUUUUCCCCUGAUAGUGCUAAGGGGGCCUGGAAGUUUGGACUGGGCAGAGCUCAACAUAGCGUGGCAAAGUGGCUGUGGCUAGACUGCCUCUCUGGAUUCCUCGUCACUCAGCAGGGCAUCUCUGAGAGGAAUGCC [C68U A140G],0.16
13,UACGUAGGUGGUUUUCCCCUGAUAGUGCUAAGGGGGCCUGGAAGUUUGGACUGGGCAGAGCUCAACAAAGCGCGGCAAAGUGGCUGUGGCUAGACUGCCUCUCUGGAUUCCUCGUCACUCAGCAGGGCAUCUCUGAGAGAAAUGCC [C68A U73C],0.05
14,UACGUAGGUGGUUUUCCCCUGAUAGUGCUAAGGGGGCCUGGAAGUUUGGACUGGGCAGAGCUCAACAUAGCGUGGCAAAGUGGCUGUGGCUAGACUGCCUCUCUGGAUUCCUCGUCUCUCAGCAGGGCAUCUCUGAGAGAAAUGCC [C68U A117U],0.25
15,UACGUAGGUGGUUUUCCCCUGAUAGUGCUAAGGGGGCCUGGAAGUUUGGACUGGGCAGAGCUCAACAUAGCGUGGCAAAGUGGCUGUGGCUAGACUGCCUCUCUGGAUUCCUCGUCGCUCAGCAGGGCAUCUCUGAGAGAAAUGCC [C68U A117G],0.12
16,UACGUAGGUGGUUUUCCCCUGAUAGUGCUAAGGGGGCCUGGAAGUUUGGACUGGGCAGAGCUCAACAGAGCGUGGCAAAGUGGCUGUGGCUAGACUGCCUCUCUGGAUUCCUCGUCACUCAGCAGGGCAUCUCUGAGAGAGAUGCC [C68G A141G],0.04
17,UACGUAGGUGGUUUUCCCCUGAUAGUGCUAAGGGGGCCUGGAAGUUUGGACUGGGCAGAGCUCAACAAAGCGUGGCAAAGUGGCUGAGGCUAGACUGCCUCUCUGGAUUCCUCGUCACUCAGCAGGGCAUCUCUGAGAGAAAUGCC [C68A U87A],0.01
18,UACGUAGGUGGUUUUCCCCUGAUAGUGCUAAGGGGGCCUGGAAGUUUGGACUGGGCAGAGCUCAACAUAGCGUGGCAAAGUGGCUGUGGCUAGACUGCCUCUCUGGAUUCCUCGUCACUCAUCAGGGCAUCUCUGAGAGAAAUGCC [C68U G122U],0.21
19,UACGUAGGUGGUUUUCCCCUGAUAGUGCUAAGGGGGCCUGGAAGUUUGGACUGGGCAGAGCUCAACAUAGCGUGGCAAAGUGGCUGUGGCUAGACUGCCUCUCUGGAUUCCCCGUCACUCAGCAGGGCAUCUCUGAGAGAAAUGCC [C68U U112C],0.06
20,UACGUAGGUGGUUUUCCCCUGAUAGUGCUAAGGGGGCCUGGAAGUUUGGACUGGGCAGAGCUCAACAGAGCGUGGCAAAGUGGCUGUGGCUAGACUGCCUCUCUGGAUUCCUCGUCACUCCGCAGGGCAUCUCUGAGAGAAAUGCC [C68G A121C],0.03

row,Variant,self-cleavage
1,UACGUAGGUGGUUUUCCCCUGAUAGUGCUAAGGGGGCCUGGAAGUUUGGACUGGGCAGAGCUCAACAUAGCGUGGCAAAGUGGCUGUAGCUAGACUGCCUCUCUGGAUUCCUCGUCACUCAGCAGGGCAUCUCUGAGAGAAAUGCC [C68U G88A],0.05
2,UACGUAGGUGGUUUUCCCCUGAUAGUGCUAAGGGGGCCUGGAAGUUUGGACUGGGCAGAGCUCAACAUAGCGUGGCAAAGUGGCUGUGGCUAGACUGCCUCUCUGGAAUCCUCGUCACUCAGCAGGGCAUCUCUGAGAGAAAUGCC [C68U U108A],0.2
3,UACGUAGGUGGUUUUCCCCUGAUAGUGCUAAGGGGGCCUGGAAGUUUGGACUGGGCAGAGCUCAACAUAGCGUGGCAAAGUGGCUGUGGCUAGACUGCCUCUCUGGACUCCUCGUCACUCAGCAGGGCAUCUCUGAGAGAAAUGCC [C68U U108C],0.32
4,UACGUAGGUGGUUUUCCCCUGAUAGUGCUAAGGGGGCCUGGAAGUUUGGACUGGGCAGAGCUCAACACCGCGUGGCAAAGUGGCUGUGGCUAGACUGCCUCUCUGGAUUCCUCGUCACUCAGCAGGGCAUCUCUGAGGGAAAUGCC [A69C A138G],0.16
5,UACGUAGGUGGUUUUCCCCUGAUAGUGCUAAGGGGGCCUGGAAGUUUGGACUGGGCAGAGCUCAACUCAGCGUGGCAAAGUGGCUGUGGCUAGACUGCCUCUCUGGAUUCCUCGUCACUCAGCAGGGCAUCUCAGAGAGAAAUGCC [A67U U134A],0.08
6,UACGUAGGUGGUUUUCCCCUGAUAGUGCUAAGGGGGCCUGGAAGUUUGGACUGGGCAGAGCUCAACAUAGCGUGGCAAAGUGGCUGUGGCUAGACUGCCUCUCUGGAUUCCUCGUCACUCAGCUGGGCAUCUCUGAGAGAAAUGCC [C68U A124U],0.28
7,UACGUAGGUGGUUUUCCCCUGAUAGUGCUAAGGGGGCCUGGAAGUUUGGACUGGGCAGAGCUCAACAUAGCGUGGCAAAGUGGCUGUGGCUAGACUGCCUCUCUGGAUUCCUCGUCACUCAGCAGGGCAUCUCUGAGAGAAGUGCC [C68U A142G],0.14
8,UACGUAGGUGGUUUUCCCCUGAUAGUGCUAAGGGGGCCUGGAAGUUUGGACUGGGCAGAGCUCAACAUAGCGUGGCAAAGUGGCUGUGGCUAGACUGCCUCUCUGGAUACCUCGUCACUCAGCAGGGCAUCUCUGAGAGAAAUGCC [C68U U109A],0.21
9,UACGUAGGUGGUUUUCCCCUGAUAGUGCUAAGGGGGCCUGGAAGUUUGGACUGGGCAGAGCUCAACAAAGCGUGGCAAAGUGGCUGUGGCUAGACUGCCUCUCUGGAUUCCUCGUCACUCAGCGGGGCAUCUCUGAGAGAAAUGCC [C68A A124G],0.05
10,UACGUAGGUGGUUUUCCCCUGAUAGUGCUAAGGGGGCCUGGAAGUUUGGACUGGGCAGAGCUCAACACCGAGUGGCAAAGUGGCUGUGGCUAGACUGCCUCUCUGGAUUCCUCGUCACUCAGCAGGGCAUCUCUGAGAGAAAUGCC [A69C C71A],0.16
11,UACGUAGGUGGUUUUCCCCUGAUAGUGCUAAGGGGGCCUGGAAGUUUGGACUGGGCAGAGCUCAACUCAGCGUGGCAAAGUGGCUGUGGCUAGACUGCCUCUCUGGAUUCCUCGUCACUCAGCAGGGCAACUCUGAGAGAAAUGCC [A67U U130A],0.13
12,UACGUAGGUGGUUUUCCCCUGAUAGUGCUAAGGGGGCCUGGAAGUUUGGACUGGGCAGAGCUCAACAAAGCGUGGCAAAGUGGCUGUGGCUAGACUGCCUCUCUGGAUCCCUCGUCACUCAGCAGGGCAUCUCUGAGAGAAAUGCC [C68A U109C],0.06
13,UACGUAGGUGGUUUUCCCCUGAUAGUGCUAAGGGGGCCUGGAAGUUUGGACUGGGCAGAGCUCAACACCGCGUGGCUAAGUGGCUGUGGCUAGACUGCCUCUCUGGAUUCCUCGUCACUCAGCAGGGCAUCUCUGAGAGAAAUGCC [A69C A77U],0.09
14,UACGUAGGUGGUUUUCCCCUGAUAGUGCUAAGGGGGCCUGGAAGUUUGGACUGGGCAGAGCUCAACAUAGCGUAGCAAAGUGGCUGUGGCUAGACUGCCUCUCUGGAUUCCUCGUCACUCAGCAGGGCAUCUCUGAGAGAAAUGCC [C68U G74A],0.2
15,UACGUAGGUGGUUUUCCCCUGAUAGUGCUAAGGGGGCCUGGAAGUUUGGACUGGGCAGAGCUCAACAUAGCGUGGCAAAGCGGCUGUGGCUAGACUGCCUCUCUGGAUUCCUCGUCACUCAGCAGGGCAUCUCUGAGAGAAAUGCC [C68U U81C],0.18
16,UACGUAGGUGGUUUUCCCCUGAUAGUGCUAAGGGGGCCUGGAAGUUUGGACUGGGCAGAGCUCAACAUAGCGUGGCAAAGAGGCUGUGGCUAGACUGCCUCUCUGGAUUCCUCGUCACUCAGCAGGGCAUCUCUGAGAGAAAUGCC [C68U U81A],0.18
17,UACGUAGGUGGUUUUCCCCUGAUAGUGCUAAGGGGGCCUGGAAGUUUGGACUGGGCAGAGCUCAACAAAGCGUGGCAAAGUGGCUGUGGCUAGACUGCCUCUCUGGAUUCCUCGUCACUCAGCAGGGCAUCUCUGAGAGAAAUGCU [C68A C146U],0.06
18,UACGUAGGUGGUUUUCCCCUGAUAGUGCUAAGGGGGCCUGGAAGUUUGGACUGGGCAGAGCUCAACAUAGCGUGGCAAAGUGGCUGCGGCUAGACUGCCUCUCUGGAUUCCUCGUCACUCAGCAGGGCAUCUCUGAGAGAAAUGCC [C68U U87C],0.02
19,UACGUAGGUGGUUUUCCCCUGAUAGUGCUAAGGGGGCCUGGAAGUUUGGACUGGGCAGAGCUCAACAUAGCGUGGCAAAGUGGCUGUGGCUAGACUGCCUCUCUGGAUUCCUCGUCACUCAGCAGGGCGUCUCUGAGAGAAAUGCC [C68U A129G],0.06
